Patent US20190352359A1 (IMMATICS BIOTECHNOLOGIES, published 2019)

Target: T1, HLA-A*24
T1 construct: Monomers captured on streptavidin plates; also called peptide-receptive MHC molecules; MHC complexes
Test: UV peptide-exchange ELISA (anti-b2m); yield grade ++++ = >75%
Text: Candidate peptides for T cell based therapies according to the present invention were further tested for their MHC binding capacity (affinity). The individual peptide-MHC complexes were produced by UV-ligand exchange, where a UV-sensitive peptide is cleaved upon UV-irradiation, and exchanged with the peptide of interest as analyzed. Only peptide candidates that can effectively bind and stabilize the peptide-receptive MHC molecules prevent dissociation of the MHC complexes. To determine the yield of the exchange reaction, an ELISA was performed based on the detection of the light chain (p2m) of stabilized MHC complexes. The assay was performed as generally described in Rodenko et al. (Rodenko et al., 2006)
96 well MAXISorp plates (NUNC) were coated over night with 2 ug/ml streptavidin in PBS at room temperature, washed 4× and blocked for 1 h at 37° C. in 2% BSA containing blocking buffer. Refolded HLA-A*02:01/MLA-001 monomers served as standards, covering the range of 15-500 ng/ml. Peptide-MHC monomers of the UV-exchange reaction were diluted 100-fold in blocking buffer. Samples were incubated for 1 h at 37° C., washed four times, incubated with 2 ug/ml HRP conjugated anti-β2m for 1h at 37° C., washed again and detected with TMB solution that is stopped with […]. Absorption was measured at 450 nm. Candidate peptides that show a high exchange yield (preferably higher than 50%, most preferred higher than 75%) are generally preferred for a generation and production of antibodies or fragments thereof, and/or T cell receptors or fragments thereof, as they show sufficient avidity to the MHC molecules and prevent dissociation of the MHC complexes.

Peptide exchange yield, > 75%:
KYVGEVFNI (also called KYVGEVFNI) [DMXL1-001]
VYLASVAAF (also called VYLASVAAF) [SLC45A3-006]
KFLTHDVLTELF (also called KFLTHDVLTELF) [TRPM8-009]
MYGIVIRTI (also called MYGIVIRTI) [NPSR-001]
AAFISVPLLI (also called AAFISVPLLI) [TAS2R38-002]
RYENVSILF (also called RYENVSILF) [ADCY8-001]
KWKPSPLLF (also called KWKPSPLLF) [GPR126-002]
NYMDTDNLMF (also called NYMDTDNLMF) [LOC1001246-002]
FYHEDMPLW (also called FYHEDMPLW) [FCRL5-004]
SYLWTDNLQEF (also called SYLWTDNLQEF) [DNAH17-003]
KYKDHFTEI (also called KYKDHFTEI) [MAGEB1-001]
IFMGAVPTL (also called IFMGAVPTL) [LPAR3-001]
FYQPDLKYLSF (also called FYQPDLKYLSF) [NLRP4-003]
VHMKDFFYF (also called VHMKDFFYF) [DYRK4-001]
LQPQPQLFFSF (also called LQPQPQLFFSF) [POT-002]
EVYQKIILKF (also called EVYQKIILKF) [PASD-001]
FYPEVELNF (also called FYPEVELNF) [MMP1-009]
EYQQYHPSL (also called EYQQYHPSL) [CLEC4C-001]
GYFGTASLF (also called GYFGTASLF) [SLC16A14-001]
GYFGNPQKF (also called GYFGNPQKF) [LAMA3-002]
AFISVPLLI (also called AFISVPLLI) [TAS2R38-003]
NFYLFPTTF (also called NFYLFPTTF) [PNLD-001]
KMGRIVDYF (also called KMGRIVDYF) [GABRP-003]
RYQSVIYPF (also called RYQSVIYPF) [AGTR2-002]
VYCSLDKSQF (also called VYCSLDKSQF) [RTL-004]
TYETVMTFF (also called TYETVMTFF) [BTBD16-003]
VYAVISNIL (also called VYAVISNIL) [TNR-003]
VYTVGHNLI (also called VYTVGHNLI) [KLB-003]
RYLEEHTEF (also called RYLEEHTEF) [MROH2A-003]
VYDSIWCNM (also called VYDSIWCNM) [SCGB2A1-001]
DYIQMIPEL (also called DYIQMIPEL) [RTL-002]
IYANVTEMLL (also called IYANVTEMLL) [CYP27C-001]
IYTDITYSF (also called IYTDITYSF) [CHRNA6-002]
HWSHITHLF (also called HWSHITHLF) [DPY19L1-003]
VYSDLHAFY (also called VYSDLHAFY) [MANEAL-004]
KLPTEWNVL (also called KLPTEWNVL) [AKAP13-005]
PYFSPSASF (also called PYFSPSASF) [SPER-001]
YQSRDYYNF (also called YQSRDYYNF) [AR-002]
VYNNNSSRF (also called VYNNNSSRF) [MYO10-003]
AYFVAMHLF (also called AYFVAMHLF) [TENM4-007]
SFISPRYSWLF (also called SFISPRYSWLF) [SPNS3-005]
QYGFNYNKF (also called QYGFNYNKF) [PNLD-002]
FYIRRLPMF (also called FYIRRLPMF) [CHRNA6-001]
LYHNWRHAF (also called LYHNWRHAF) [PDE11-002]
QYIPTFHVY (also called QYIPTFHVY) [SLC44A5-003]
IYFATQVVF (also called IYFATQVVF) [SLC45A3-004]
EYIDEFQSL (also called EYIDEFQSL) [RTL-003]
NYPEGAAYEF (also called NYPEGAAYEF) [ESR1-008]
YYAADQWVF (also called YYAADQWVF) [CCR4-004]
IYMTTGVLL (also called IYMTTGVLL) [TDRD9-002]
SYPKELMKF (also called SYPKELMKF) [MROH2A-004]
RYADLLIYTY (also called RYADLLIYTY) [MYO3B-005]
RFLDRGWGF (also called RFLDRGWGF) [ADAMTS12-005]
TYIDFVPYI (also called TYIDFVPYI) [TEX15-001]
VYLTWLPGL (also called VYLTWLPGL) [IFNLR-001]
IFMENAFEL (also called IFMENAFEL) [APOB-079]
RYILEPFFI (also called RYILEPFFI) [SLC7A11-007]
VYDYIPLLL (also called VYDYIPLLL) [MROH2A-005]
NYSPVTGKF (also called NYSPVTGKF) [OTOL-001]
IQNAILHLF (also called IQNAILHLF) [OR51B5-001]
QYLSIAERAEF (also called QYLSIAERAEF) [MSX-001]
KYNRQSMTL (also called KYNRQSMTL) [APOB-080]
LYITKVTTI (also called LYITKVTTI) [FSTL4-002]
AWSPPATLFLF (also called AWSPPATLFLF) [LOXL4-003]
IYLVGGYSW (also called IYLVGGYSW) [KLHL14-007]
RYAHTLVTSVLF (also called RYAHTLVTSVLF) [ITIH6-003]
VYKWTEEKF (also called VYKWTEEKF) [TSPE-001]
